According to publication PMC4227788, “Architecture and ssDNA interaction of the Timeless-Tipin-RPA complex” (Nucleic Acids Research, 2014):

Columns and labels:
[1] = molecular target: T1, Tim interacting protein (Tipin, residues 1-278) (mouse, UniProt Q91WA1 1-278); assay: SEC; Tim and Tipin co-expressed in E. coli and co-purified (Ni-NTA, Q-sepharose, SEC on Superdex 200 16/60; 20 mM Hepes pH 7.0, 125 mM NaCl, 2 mM DTT); single peak; details: partners not purified
T1 construct: The Tipin chain of m1, written alone for the pair Tim with Tipin; also called His-GST-Tipin; source: E. coli BL21 (DE3) gold with pRARE, co-expressed with Tim, co-purified
T1 sequence (looked up): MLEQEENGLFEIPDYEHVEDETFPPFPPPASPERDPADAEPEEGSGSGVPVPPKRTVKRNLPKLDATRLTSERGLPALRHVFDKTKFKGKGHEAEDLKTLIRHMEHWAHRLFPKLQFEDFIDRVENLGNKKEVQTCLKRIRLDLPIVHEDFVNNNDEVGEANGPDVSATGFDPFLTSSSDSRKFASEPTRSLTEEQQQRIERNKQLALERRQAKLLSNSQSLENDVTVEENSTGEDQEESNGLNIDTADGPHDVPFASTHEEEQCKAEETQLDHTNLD

Tim-Tipin complex [2] = molecular target: T2, Tim-Tipin complex (mouse, UniProt Q9R1X4;Q91WA1 1-1134;1-278); assay: fluorescence anisotropy; Hill n = 2.2 ± 0.1; 30 C; 20 mM Hepes pH 7.5, 125 mM NaCl, 2 mM DTT, 0.01 mM zinc acetate (Buffer A); EMSA 15 min RT + 15 min 4 C; FA 15 min 30 C, 10 nM DNA; details: protein: recombinant; tags: His (Tim) and His-GST (Tipin), cleaved with 3C; copies: 1;1; label: 5'-FAM
T2 sequence 1: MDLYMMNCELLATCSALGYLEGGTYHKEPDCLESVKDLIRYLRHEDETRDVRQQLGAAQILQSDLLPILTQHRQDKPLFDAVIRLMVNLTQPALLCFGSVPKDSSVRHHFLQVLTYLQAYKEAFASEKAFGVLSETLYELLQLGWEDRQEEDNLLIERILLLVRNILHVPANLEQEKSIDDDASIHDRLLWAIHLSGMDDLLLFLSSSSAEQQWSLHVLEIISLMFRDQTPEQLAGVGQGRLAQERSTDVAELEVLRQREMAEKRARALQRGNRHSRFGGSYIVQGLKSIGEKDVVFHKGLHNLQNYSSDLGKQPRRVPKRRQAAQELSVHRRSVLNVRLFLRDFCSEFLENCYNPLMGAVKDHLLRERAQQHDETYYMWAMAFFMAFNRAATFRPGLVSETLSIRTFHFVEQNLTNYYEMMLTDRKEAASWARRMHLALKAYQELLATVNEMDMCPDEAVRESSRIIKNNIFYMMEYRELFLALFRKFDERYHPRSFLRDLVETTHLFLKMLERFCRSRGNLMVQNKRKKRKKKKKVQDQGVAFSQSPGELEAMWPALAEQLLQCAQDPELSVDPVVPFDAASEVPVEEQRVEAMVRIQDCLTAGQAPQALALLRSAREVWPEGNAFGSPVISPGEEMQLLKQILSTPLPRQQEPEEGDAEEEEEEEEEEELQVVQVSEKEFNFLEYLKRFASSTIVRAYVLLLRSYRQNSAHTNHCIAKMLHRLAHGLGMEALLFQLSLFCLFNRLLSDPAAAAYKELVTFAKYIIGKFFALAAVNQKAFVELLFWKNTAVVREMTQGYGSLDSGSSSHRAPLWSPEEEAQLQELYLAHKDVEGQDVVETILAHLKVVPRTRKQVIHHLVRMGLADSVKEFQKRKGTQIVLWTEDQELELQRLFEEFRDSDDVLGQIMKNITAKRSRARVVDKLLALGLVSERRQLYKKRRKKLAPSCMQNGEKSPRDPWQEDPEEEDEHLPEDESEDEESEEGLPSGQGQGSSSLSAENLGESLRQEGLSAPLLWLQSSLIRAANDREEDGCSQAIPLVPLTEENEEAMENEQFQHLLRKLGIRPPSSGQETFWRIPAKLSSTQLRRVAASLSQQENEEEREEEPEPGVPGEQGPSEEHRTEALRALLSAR
T2 sequence 2: T1 sequence (looked up)

[3] = molecular target: T3, Tim-Tipin complex;RPA70/32/14 (RPA70ABC/32D-WH/14) (mouse;mouse, UniProt Q9R1X4;Q91WA1;Q8VEE4;Q99KL9;Q9CQ71 1-1134;1-278;190-623;43-270;1-121, |); assay: EMSA; excess DNA; partial dissociation; 20 mM Hepes pH 7.5, 125 mM NaCl, 2 mM DTT, 0.01 mM zinc acetate (Buffer A); EMSA 15 min RT + 15 min 4 C; FA 15 min 30 C, 10 nM DNA; details: protein: recombinant;recombinant; tags: His (Tim) and His-GST (Tipin), cleaved with 3C;His; copies: 1;1;1;1;1; label: 5'-FAM
T3 sequence (Q8VEE4 190-623, chain 3 of 3): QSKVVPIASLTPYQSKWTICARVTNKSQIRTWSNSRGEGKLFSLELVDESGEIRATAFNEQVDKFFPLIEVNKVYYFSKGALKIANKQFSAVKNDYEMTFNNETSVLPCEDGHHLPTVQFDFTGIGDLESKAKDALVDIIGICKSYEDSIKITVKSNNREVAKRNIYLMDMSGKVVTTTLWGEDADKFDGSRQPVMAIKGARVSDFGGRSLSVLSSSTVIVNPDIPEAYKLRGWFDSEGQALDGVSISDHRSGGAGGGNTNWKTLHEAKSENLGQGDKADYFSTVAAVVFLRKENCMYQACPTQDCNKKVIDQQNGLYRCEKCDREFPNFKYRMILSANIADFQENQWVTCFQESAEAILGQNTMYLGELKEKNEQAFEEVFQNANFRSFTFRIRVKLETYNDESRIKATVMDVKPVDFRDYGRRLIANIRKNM
T3 sequence (chain, as listed by the source |, chain 4 of 3): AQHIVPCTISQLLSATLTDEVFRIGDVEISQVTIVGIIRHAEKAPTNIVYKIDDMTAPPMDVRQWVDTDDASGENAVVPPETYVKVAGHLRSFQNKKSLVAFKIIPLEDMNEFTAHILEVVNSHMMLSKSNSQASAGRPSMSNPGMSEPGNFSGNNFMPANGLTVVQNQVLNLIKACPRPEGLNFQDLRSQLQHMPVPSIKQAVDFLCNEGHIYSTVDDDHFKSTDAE
T3 sequence (Q9CQ71 whole entry, chain 5 of 3): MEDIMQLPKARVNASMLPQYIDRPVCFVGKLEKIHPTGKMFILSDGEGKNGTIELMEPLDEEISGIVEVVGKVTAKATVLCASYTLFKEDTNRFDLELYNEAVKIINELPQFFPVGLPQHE

[4] = molecular target: T4, RPA70/32/14 (RPA70ABC/32D-WH/14) (mouse, UniProt Q8VEE4;Q99KL9;Q9CQ71 190-623;43-270;1-121); assay: EMSA; 1 RPA with excess DNA, up to 4 RPA at substoichiometric DNA; 20 mM Hepes pH 7.5, 125 mM NaCl, 2 mM DTT, 0.01 mM zinc acetate (Buffer A); EMSA 15 min RT + 15 min 4 C; FA 15 min 30 C, 10 nM DNA; details: protein: recombinant; tags: His; copies: 1;1;1; label: 5'-FAM
T4 sequence (Q8VEE4 190-623, chain 1 of 3): as the sequence (Q8VEE4 190-623, chain 3 of 3) above
T4 sequence (chain, as listed by the source, chain 2 of 3): as the sequence (chain, as listed by the source |, chain 4 of 3) above
T4 sequence (Q9CQ71 whole entry, chain 3 of 3): as the sequence (Q9CQ71 whole entry, chain 5 of 3) above

[5] = molecular target: T4, RPA70/32/14 (RPA70ABC/32D-WH/14); assay: EMSA; 1 RPA per DNA; 20 mM Hepes pH 7.5, 125 mM NaCl, 2 mM DTT, 0.01 mM zinc acetate (Buffer A); EMSA 15 min RT + 15 min 4 C; FA 15 min 30 C, 10 nM DNA; details: protein: recombinant; tags: His; copies: 1;1;1; label: 5'-FAM
Tim-Tipin complex [6] = molecular target: T2, Tim-Tipin complex; assay: EMSA; 16 uM protein, 4-64 uM DNA; 20 mM Hepes pH 7.5, 125 mM NaCl, 2 mM DTT, 0.01 mM zinc acetate (Buffer A); EMSA 15 min RT + 15 min 4 C; FA 15 min 30 C, 10 nM DNA; details: protein: recombinant; tags: His (Tim) and His-GST (Tipin), cleaved with 3C; copies: 1;1; label: 5'-FAM
Tim-Tipin complex [7] = molecular target: T2, Tim-Tipin complex; assay: SEC; excess DNA; partial binding, 260/280 = 0.98 ± 0.14; 20 mM Hepes pH 7.5, 125 mM NaCl, 2 mM DTT, 0.01 mM zinc acetate (Buffer A); EMSA 15 min RT + 15 min 4 C; FA 15 min 30 C, 10 nM DNA; details: protein: recombinant; tags: His (Tim) and His-GST (Tipin), cleaved with 3C; copies: 1;1
[8] = molecular target: T3, Tim-Tipin complex;RPA70/32/14 …; assay: SEC; excess DNA; intact complex, 260/280 = 1.20 ± 0.04; 20 mM Hepes pH 7.5, 125 mM NaCl, 2 mM DTT, 0.01 mM zinc acetate (Buffer A); EMSA 15 min RT + 15 min 4 C; FA 15 min 30 C, 10 nM DNA; details: protein: recombinant;recombinant; tags: His (Tim) and His-GST (Tipin), cleaved with 3C;His; copies: 1;1;1;1;1
[9] = molecular target: T4, RPA70/32/14 (RPA70ABC/32D-WH/14); assay: SEC; excess DNA 260/280 = 1.57 ± 0.05; substoichiometric 1.32 ± 0.03; 20 mM Hepes pH 7.5, 125 mM NaCl, 2 mM DTT, 0.01 mM zinc acetate (Buffer A); EMSA 15 min RT + 15 min 4 C; FA 15 min 30 C, 10 nM DNA; details: protein: recombinant; tags: His; copies: 1;1;1
[10] = molecular target: T3, Tim-Tipin complex;RPA70/32/14 …; assay: SEC; excess DNA; intact complex, 260/280 = 1.11 ± 0.04; 20 mM Hepes pH 7.5, 125 mM NaCl, 2 mM DTT, 0.01 mM zinc acetate (Buffer A); EMSA 15 min RT + 15 min 4 C; FA 15 min 30 C, 10 nM DNA; details: protein: recombinant;recombinant; tags: His (Tim) and His-GST (Tipin), cleaved with 3C;His; copies: 1;1;1;1;1
[11] = molecular target: T4, RPA70/32/14 (RPA70ABC/32D-WH/14); assay: SEC; excess DNA 260/280 = 1.46 ± 0.01; substoichiometric 1.28 ± 0.05; 20 mM Hepes pH 7.5, 125 mM NaCl, 2 mM DTT, 0.01 mM zinc acetate (Buffer A); EMSA 15 min RT + 15 min 4 C; FA 15 min 30 C, 10 nM DNA; details: protein: recombinant; tags: His; copies: 1;1;1
[12] = molecular target: T4, RPA70/32/14 (RPA70ABC/32D-WH/14); assay: SEC; DNA-bound RPA released from Tim-Tipin-RPA mixture, 260/280 = 1.27 ± 0.05 and 1.22 ± 0.04; 20 mM Hepes pH 7.5, 125 mM NaCl, 2 mM DTT, 0.01 mM zinc acetate (Buffer A); EMSA 15 min RT + 15 min 4 C; FA 15 min 30 C, 10 nM DNA; details: protein: recombinant; tags: His; copies: 1;1;1
Tim-Tipin complex [13] = molecular target: T2, Tim-Tipin complex; assay: SEC; 260/280 = 0.54, excess or substoichiometric DNA; 20 mM Hepes pH 7.5, 125 mM NaCl, 2 mM DTT, 0.01 mM zinc acetate (Buffer A); EMSA 15 min RT + 15 min 4 C; FA 15 min 30 C, 10 nM DNA; details: protein: recombinant; tags: His (Tim) and His-GST (Tipin), cleaved with 3C; copies: 1;1

B1: Timeless (Tim, residues 1-1134) (domain or fragment, mouse, UniProt Q9R1X4 1-1134, looked up)
chain: T2 sequence 1
notes: Timeless (Tim), mouse, AB019001, aa 1-1134; The Tim chain of m1, written alone for the pair Tim with Tipin; also called mTim; His-Tim; source: E. coli BL21 (DE3) gold with pRARE, co-expressed with Tipin, co-purified
stoichiometry N [1]: 1

B2: 60 nt FAM ssDNA (ssDNA)
DNA: ACGCTGCCGAATTCTACCAGTGCCTTGCTAGGACATCTTTGCCCACCTGCAGGTTCACCC
Kd (Tim-Tipin complex [2]): 290 ± 10 nM | binding result [3]: binds | binding result [4]: binds

GACGGCATCCCTAA (ssDNA) [14 nt FAM ssDNA]
binding result [5]: binds | binding result (Tim-Tipin complex [6]): no binding

B3: 60 nt ssDNA (SEC) (ssDNA)
DNA: CAGACCGCCACCGACTGCTTAGATATTTAAGTTTTCTAATTTTTCATTGAAAGCATTAAG
binding result (Tim-Tipin complex [7]): binds | binding result [8]: binds | binding result [9]: binds

CGGGATCCCAGCCAGCGATGTCTCAAGCTGC (ssDNA) [31 nt ssDNA (SEC)]
binding result [10]: binds | binding result [11]: binds

AGAAGAGCCAAAAC (ssDNA) [14 nt ssDNA (SEC)]
binding result [12]: binds | binding result (Tim-Tipin complex [13]): no binding
